The target in one data set is T1, DvCODH (Nitratidesulfovibrio vulgaris, UniProt Q72A99).
T1 construct: gene cooS
Format: biochemical. The conditions noted are these: CO-saturated 50 mM HEPES/NaOH pH 8, 2 mM DTE, 20 mM viologen, 30 °C.

Data set [1] concerns the molecule itself. Description: SEC; size exclusion chromatography of the purified enzyme; measured molecular mass compared with the theoretical mass of the dimer. Background: Size exclusion chromatography separates by hydrodynamic size, large species first.

T1 sequence (Q72A99 1-629): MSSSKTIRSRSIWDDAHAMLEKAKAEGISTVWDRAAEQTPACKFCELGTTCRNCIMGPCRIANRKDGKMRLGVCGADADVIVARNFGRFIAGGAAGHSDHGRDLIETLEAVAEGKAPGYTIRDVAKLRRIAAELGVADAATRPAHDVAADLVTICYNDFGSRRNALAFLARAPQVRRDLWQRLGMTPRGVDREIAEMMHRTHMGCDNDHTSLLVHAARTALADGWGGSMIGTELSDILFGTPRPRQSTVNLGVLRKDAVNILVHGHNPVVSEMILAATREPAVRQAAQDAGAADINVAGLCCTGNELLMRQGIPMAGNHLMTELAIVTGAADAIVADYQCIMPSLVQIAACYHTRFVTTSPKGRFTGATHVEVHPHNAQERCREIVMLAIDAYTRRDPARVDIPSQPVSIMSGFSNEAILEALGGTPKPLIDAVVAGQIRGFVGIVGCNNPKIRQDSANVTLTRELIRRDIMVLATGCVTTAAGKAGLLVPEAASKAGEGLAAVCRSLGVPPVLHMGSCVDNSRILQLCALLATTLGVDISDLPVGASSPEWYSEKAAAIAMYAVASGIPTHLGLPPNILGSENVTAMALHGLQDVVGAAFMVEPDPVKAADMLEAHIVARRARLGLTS

Take `C[n+]1ccc(-c2cc[n+](C)cc2)cc1` [MV, methyl viologen]: the “CO-dependent viologen reduction, relative activity” value on DvCODH was “essential for viologen reduction using the four mediators MV, EV, BV, and diquat (DQ)”.

B1: ChCODH2 F41A (enzyme, Carboxydothermus hydrogenoformans)
chain: MAKQNLKSTDRAVQQMLDKAKREGIQTVWDRYEAMKPQCGAGETGLCCRHCLQGPCRINPFGDEPKVGICGATAEVIVARGLDRSIAAGAAGHSGHAKHLAHTLKKAVQGKAASYMIKDRTKLHSIAKRLGIPTEGQKDEDIALEVAKAALADFHEKDTPVLWVTTVLPPSRVKVLSAHGLIPAGIDHEIAEIMHRTSMGCDADAQNLLLGGLRCSLADLAGCYMGTDLADILFGTPAPVVTESNLGVLKADAVNVAVHGHNPVLSDIIVSVSKEMENEARAAGATGINVVGICCTGNEVLMRHGIPACTHSVSQEMAMITGALDAMILDYQCIQPSVATIAECTGTTVITTMEMSKITGATHVNFAEEAAVENAKQILRLAIDTFKRRKGKPVEIPNIKTKVVAGFSTEAIINALSKLNANDPLKPLIDNVVNGNIRGVCLFAGCNNVKVPQDQNFTTIARKLLKQNVLVVATGCGAGALMRHGFMDPANVDELCGDGLKAVLTAIGEANGLGGPLPPVLHMGSCVDNSRAVALVAALANRLGVDLDRLPVVASAAEAMHEKAVAIGTWAVTIGLPTHIGVLPPITGSLPVTQILTSSVKDITGGYFIVELDPETAADKLLAAINERRAGLGLPW
notes: Ni-Fe carbon monoxide dehydrogenase 2 (ChCODH2), Carboxydothermus hydrogenoformans, locus Chy_0085; site-directed variant in pET28a; source: E. coli BL21(DE3) with pRKISC, purified (Ni-NTA; size-exclusion chromatography)
As a reminder, the stoichiometry N is the number of molecules, sites or subunits per partner or assembly. On to B1, for which, in data set [1], the “stoichiometry N” value worked out at 2.

B2: ChCODH2 wild type (carbon monoxide dehydrogenase 2 of Carboxydothermus hydrogenoformans) (enzyme)
chain: MAKQNLKSTDRAVQQMLDKAKREGIQTVWDRYEAMKPQCGFGETGLCCRHCLQGPCRINPFGDEPKVGICGATAEVIVARGLDRSIAAGAAGHSGHAKHLAHTLKKAVQGKAASYMIKDRTKLHSIAKRLGIPTEGQKDEDIALEVAKAALADFHEKDTPVLWVTTVLPPSRVKVLSAHGLIPAGIDHEIAEIMHRTSMGCDADAQNLLLGGLRCSLADLAGCYMGTDLADILFGTPAPVVTESNLGVLKADAVNVAVHGHNPVLSDIIVSVSKEMENEARAAGATGINVVGICCTGNEVLMRHGIPACTHSVSQEMAMITGALDAMILDYQCIQPSVATIAECTGTTVITTMEMSKITGATHVNFAEEAAVENAKQILRLAIDTFKRRKGKPVEIPNIKTKVVAGFSTEAIINALSKLNANDPLKPLIDNVVNGNIRGVCLFAGCNNVKVPQDQNFTTIARKLLKQNVLVVATGCGAGALMRHGFMDPANVDELCGDGLKAVLTAIGEANGLGGPLPPVLHMGSCVDNSRAVALVAALANRLGVDLDRLPVVASAAEAMHEKAVAIGTWAVTIGLPTHIGVLPPITGSLPVTQILTSSVKDITGGYFIVELDPETAADKLLAAINERRAGLGLPW
notes: Ni-Fe carbon monoxide dehydrogenase 2 (ChCODH2), Carboxydothermus hydrogenoformans, locus Chy_0085; synthesized DNA in pET28a; Carries Fe-S and Ni-Fe clusters (B, C, D); also called ChCODH2 WT; WT; source: E. coli BL21(DE3) with pRKISC, purified (Ni-NTA; size-exclusion chromatography)
Regarding B2, the binding result in data set [1] was “binds”.

These data come from article PMC10979024 (Nature Communications, 2024).
